Results from US20190062438A1 (CSL, published 2019).

Assays:
Assay in all cases: SPR, kinetics, Fab over captured mutant
shCD131 S41A = biological target: T1, shCD131 S41A (human, UniProt P32927 17-438)
T1 construct: C-terminal 6xHis
T1 sequence: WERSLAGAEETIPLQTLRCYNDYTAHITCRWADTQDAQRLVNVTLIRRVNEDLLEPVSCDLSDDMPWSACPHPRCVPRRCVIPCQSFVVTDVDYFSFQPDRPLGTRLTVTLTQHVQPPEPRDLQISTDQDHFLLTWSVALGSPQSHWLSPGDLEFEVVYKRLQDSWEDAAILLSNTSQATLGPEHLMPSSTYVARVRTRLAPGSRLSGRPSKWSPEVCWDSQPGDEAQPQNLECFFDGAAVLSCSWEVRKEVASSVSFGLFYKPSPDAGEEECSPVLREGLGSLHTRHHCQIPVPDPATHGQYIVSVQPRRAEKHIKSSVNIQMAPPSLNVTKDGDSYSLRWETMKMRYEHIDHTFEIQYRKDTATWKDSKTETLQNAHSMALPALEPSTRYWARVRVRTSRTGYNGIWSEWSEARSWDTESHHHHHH

shCD131 V104A = biological target: T2, shCD131 V104A (human, UniProt P32927 17-438)
T2 construct: C-terminal 6xHis
T2 sequence: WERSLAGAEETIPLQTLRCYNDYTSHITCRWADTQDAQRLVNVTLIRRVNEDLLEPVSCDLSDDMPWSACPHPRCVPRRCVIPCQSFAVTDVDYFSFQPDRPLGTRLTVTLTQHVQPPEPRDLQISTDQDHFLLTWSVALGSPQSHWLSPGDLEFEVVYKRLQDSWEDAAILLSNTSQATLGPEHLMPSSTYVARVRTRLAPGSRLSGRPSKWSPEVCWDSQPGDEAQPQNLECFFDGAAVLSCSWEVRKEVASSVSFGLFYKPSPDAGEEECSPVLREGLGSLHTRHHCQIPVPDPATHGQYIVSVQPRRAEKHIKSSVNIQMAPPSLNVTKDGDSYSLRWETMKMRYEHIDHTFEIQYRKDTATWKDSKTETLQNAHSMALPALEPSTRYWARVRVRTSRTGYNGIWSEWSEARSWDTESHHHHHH

shCD131 V108A = biological target: T3, shCD131 V108A (human, UniProt P32927 17-438)
T3 construct: C-terminal 6xHis
T3 sequence: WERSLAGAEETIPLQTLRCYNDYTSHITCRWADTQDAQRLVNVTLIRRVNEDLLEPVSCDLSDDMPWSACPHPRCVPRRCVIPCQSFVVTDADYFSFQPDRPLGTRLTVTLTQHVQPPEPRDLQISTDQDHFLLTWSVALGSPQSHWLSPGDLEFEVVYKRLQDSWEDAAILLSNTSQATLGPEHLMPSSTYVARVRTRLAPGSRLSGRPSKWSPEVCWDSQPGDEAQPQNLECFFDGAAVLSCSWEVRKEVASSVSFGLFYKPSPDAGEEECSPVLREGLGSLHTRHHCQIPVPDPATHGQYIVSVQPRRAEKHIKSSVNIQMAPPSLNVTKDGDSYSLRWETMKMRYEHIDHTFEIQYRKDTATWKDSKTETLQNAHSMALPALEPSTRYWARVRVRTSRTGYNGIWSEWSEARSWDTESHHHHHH

shCD131 I424A = biological target: T4, shCD131 I424A (human, UniProt P32927 17-438)
T4 construct: C-terminal 6xHis; also called 1424A
T4 sequence: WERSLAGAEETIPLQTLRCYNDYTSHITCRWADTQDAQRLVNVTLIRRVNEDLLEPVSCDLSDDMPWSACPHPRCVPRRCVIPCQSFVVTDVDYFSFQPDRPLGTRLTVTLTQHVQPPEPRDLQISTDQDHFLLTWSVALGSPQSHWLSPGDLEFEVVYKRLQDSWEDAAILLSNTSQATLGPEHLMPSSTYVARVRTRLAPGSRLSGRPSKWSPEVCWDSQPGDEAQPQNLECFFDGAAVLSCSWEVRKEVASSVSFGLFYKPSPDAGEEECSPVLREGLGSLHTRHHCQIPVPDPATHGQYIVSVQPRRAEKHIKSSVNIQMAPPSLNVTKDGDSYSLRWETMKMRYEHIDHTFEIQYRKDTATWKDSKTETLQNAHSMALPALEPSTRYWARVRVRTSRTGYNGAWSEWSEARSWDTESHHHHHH

B1: 9A2 Fab (Fab, V domains shown)
VH: EVQLLESGGGLVQPGGSLRLSCAASGFTFSHYHMLWVRQAPGKGLEWVSSIRSSGGFTYYADSVKGRFTISRDNSKNTLYLQMNSLRAEDTAVYYCARFYDSFFDIWGQGTMVTVSS
VL: DIQMTQSPSSVSASVGDRVTITCRASQGISSWLAWYQQKPGKAPKLLIYAASSLQSGVPSRFSGSGSGTDFTLTISSLQPEDFATYYCQQANSFPITFGQGTRLEIKR
notes: also called recombinant Fab of 9A2
Kd (shCD131 S41A): 56 nM
Kd (shCD131 V104A): 117 nM
Kd (shCD131 V108A): 83 nM
Kd (shCD131 I424A): 126 nM
